Reference: the supplement of paper PMC10567573
± gives the standard deviation.

Experiment: protein stability index of a GFP-peptide fusion (GPS, HEK-293T) (PSI 1-6); higher = more stable
Conditions: c terminus: a fixed tail appended
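Further: 24-mer peptide tiles fused after GFP, lentivirally expressed, FACS-sorted into six equal bins by GFP/DsRed ratio, decoded by Illumina sequencing, PSI is the read-weighted mean bin number.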

Sequence	protein stability index (treatment: DMSO)	protein stability index (treatment: MLN4924 1 uM, 8 h)
FNIFDWLGRSLTAVFMWPGKDSRW [SLC29A1]	2.45 ± 0.79	2.63 ± 0.5
FPKSEQVYLHFLSVVTEDGPEPKD [ZNF232]	2.58 ± 0.5	3.39 ± 0.56
FQTRQEMTSMSAELKMRAIQAEER [LRRC45]	4.12 ± 0.29	4.48 ± 0.22
FQVLCSINSIIHNPRAPVIIYKQT [CEP70]	2.76 ± 0.83	2.6 ± 1.1
FSGSNEVDQMNRIVEVLGIPPAAM [DYRK1B]	2.94 ± 0.14	3.23 ± 0.22
FSIPPWRYDAEVVAIAQKFAALRA [MYORG]	2.15 ± 0.3	2.22 ± 0.17
FSPTPPQQFQPAGTDQVCVLEWGA [FCHSD1]	2.49 ± 0.27	2.86 ± 0.35
FSTRALVLSILHATLPGIFMLLLI [SOAT2]	3.16 ± 0.35	3.37 ± 0.52
FTQSGPIVSRATGRCLEVEMSKDA [GALNT9]	2.71 ± 0.35	3.34 ± 0.54
FYQHLLLYIQSHYQLELQCCIDWT [SMG5]	3.17 ± 0.36	3.02 ± 0.38
GAFGIVHLCLRKADQKLVIIKQIP [NEK8]	2.55 ± 0.48	2.3 ± 0.33
GAFPPRGPRPVQSVVPEMEESGAQ [CDK4]	5.22 ± 0.32	5.23 ± 0.18
GAHEQVDFKDFYPAIADLFAESLQ [P3H4]	2.84 ± 0.51	3.08 ± 0.53
GAKDHASIQMNVAEVSWEPGRREG [RPS21]	4.14 ± 0.49	4.41 ± 0.41
GATVRSFSINSRLASSLGNLNAAT [CDC14A]	2.98 ± 0.1	2.92 ± 0.21
GCGWRCPEHGDRVAELFCRRCRRC [TRIM14]	3.69 ± 0.27	4.12 ± 0.18
GCLLPDGSRMMAVAALVVNFSQPV [NLN]	3.04 ± 0.46	2.75 ± 0.81
GDAHFDEDERWTNNFREYNLHRVA [MMP1]	3.84 ± 0.18	4.11 ± 0.33
GDDGIVVVWNAQTGEKLLELNGHT [WDR41]	3.39 ± 0.11	3.3 ± 0.35
GDFEEAFDHLQNRLIATKNPEEIR [TENT5C]	5.16 ± 0.17	5.19 ± 0.21
GDTVVQGDLQETTVVTGLGPDTQD [PBXIP1]	5.56 ± 0.17	5.63 ± 0.23
GEAMLANFKPRGYSECIVTVGGEE [GAN]	4.38 ± 0.42	4.18 ± 0.41
GEARFLPKDLDPSLCTHLIYAFAG [CHIT1]	2.36 ± 0.27	2.44 ± 0.49

Sequence	protein stability index (treatment: DMSO)	protein stability index (treatment: MLN4924 1 uM, 8 h)
GEGLNVIQQTTRYFSTPQTMDLFL [NANOGP8]	2.09 ± 0.34	2.32 ± 0.057
GEVVKIPSRVHGSLEPFRPQQAPQ [PWWP2B]	4.22 ± 0.21	4.16 ± 0.23
GFEYDGKINAWDLYYYMTQTEELK [NLN]	2.81 ± 0.035	2.49 ± 0.39
GFIRHTVNKITFSEQCYYIFGDLC [DVL3]	3.11 ± 0.86	2.64 ± 0.16
GGLMARPEYREWNPELIKPKKLLN [FAM107A]	3.68 ± 0.36	4.495 ± 0.034
GGSAVCASRVKLQHLPAQEQWDRL [PLEKHN1]	3.08 ± 0.43	3.06 ± 0.29
GGYTPDLKMSYSRGLIPVKRGPSS [RBMY1A1]	3.9 ± 0.14	3.8 ± 0.28
GHAAPGTDAGKAFCMFYAVLGIPL [KCNK9]	2.81 ± 0.19	2.84 ± 0.39
GIETLESVPIIGGFWETIFGNRIK [PHTF1]	2.67 ± 0.41	2.81 ± 0.18
GKEPLDPDPSHSPSDKVGRADAHL [TOR1AIP2]	5.07 ± 0.17	5.32 ± 0.057
GKEQGQNLARQWNNCAFLESSAKS [RAP1B]	4.1 ± 0.17	4.13 ± 0.14
GKGSIKELFPTGKQLEPLVAPLAD [VPS39]	4.08 ± 0.26	4.08 ± 0.11
GKQAPRKKAQGKTQQNRKLTDFYP [KMT5A]	3.64 ± 0.42	4.21 ± 0.41
GLGASTAEISARTMQSMFAKNFHV [PTPRD]	2.38 ± 0.26	2.56 ± 0.35
GLIISGPILQEGMDEEKLKQLNCV [DLC1]	3.52 ± 0.2	3.42 ± 0.3
GLLEAPGLQPVVFVLFLFAYLVTV [OR3A1]	2.53 ± 0.98	2.61 ± 0.8
GLSDPGKIKRLRSQVQVSLEDYIN [HNF4A]	2.78 ± 0.34	2.93 ± 0.18
GLVLLKHALGSPEKVKACQGQYET [TBC1D10A]	2.74 ± 0.33	2.94 ± 0.047
GNISGEFWLGNEALHSLTQAGDYS [TNXB]	3.21 ± 0.091	3.36 ± 0.34
GPCKNCKMIMDTAGNDPYCFVEFH [TIA1]	2.2 ± 0.31	2.25 ± 0.35
GPGGRRAGEPGHSPADYLRFQDLV [DYRK1B]	3.07 ± 0.35	3.27 ± 0.6
GPWQLNVFVCRVSAVLFYVNMYVS [P2RY14]	2.77 ± 0.36	2.72 ± 0.79
GRLGRRDEDAGLPRPVQLDETHPY [NEK8]	4.46 ± 0.066	4.7 ± 0.1

Sequence	protein stability index (treatment: DMSO)	protein stability index (treatment: MLN4924 1 uM, 8 h)
GRNRLYHDGKNQPSKTYPAFLEPD [SPSB1]	4.13 ± 0.12	4.37 ± 0.072
GRVEVLKNGEWGTVCDDKWDLVSA [LOXL2]	4.2 ± 0.32	3.56 ± 0.64
GSGPIQLWQFLLELLTDKSCQSFI [ETS1]	1.88 ± 0.67	2.94 ± 1.2
GSLEKALPIIQSNQVSSNSWGIAG [DLC1]	3.35 ± 0.3	3.6 ± 0.2
GSTLGGSSYSSCYSFGSGGGYGSS [KRT17]	2.77 ± 0.23	2.98 ± 0.6
GSVAVVEAECEKSSATTYFWYREA [SLC6A17]	2.81 ± 0.48	2.62 ± 0.35
GTADGADLRTVDPETQARLEALLE [ANKRD17]	4.42 ± 0.15	4.5 ± 0.21
GTSTLLVWVGVIRYLTFFHNYNIL [MCOLN1]	3.35 ± 0.16	2.99 ± 0.2
GVFGFFATIVFATDFYLIFNDVAK [CMTM3]	2.75 ± 0.27	3.44 ± 0.43
GVTGWCTGFIFQKVGKLAATAVGG [FUNDC2]	2.17 ± 0.048	2.48 ± 0.74
GVVQALIVGYAFHFPHLLSPQIQR [TMEM175]	3.53 ± 0.28	3.25 ± 0.25
GYFAFMLFRKRLGSMILAFRPRPN [GDAP1]	2.69 ± 0.79	2.37 ± 0.57
HCNVSNILHMNGSQSSTYRGTYEQ [ZNF396]	3.17 ± 0.21	3.24 ± 0.088
HCTGNEATLAACTSNGWGVTDCKH [LOXL2]	3.98 ± 0.24	4.21 ± 0.28
HCTVKLRQTTGLMEYCLEVIKEND [TRIM9]	3.07 ± 0.29	3.32 ± 0.37
HHPEVPQRILRIMCRLEELGLAGR [HDAC6]	2.09 ± 0.088	2.52 ± 0.7
HLEIDDMYTPAYGDFDFDEVKFPN [MYORG]	4.49 ± 0.12	4.26 ± 0.19
HLFLLGYSDGADDTFAAYTREQLY [MCOLN1]	2.08 ± 0.29	2.35 ± 0.18
HLVIQNLFEGMIWFLVPISSVICN [CDS1]	2.96 ± 0.2	3.25 ± 0.41
HLYPADFRFDKPKKSRSPASAEAP [ZNF511]	3.38 ± 0.52	3.83 ± 0.45
HPDIFLPSEICDRLVNEYVELVNA [ZER1]	2.56 ± 0.17	2.97 ± 0.35
HPGEHEVGEPEFHYIAGAHGNEVL [CPXM2]	5.1 ± 0.29	4.98 ± 0.31
HPLPTVIIVNLLWFIHLVFVVLAF [TMEM192]	3.37 ± 0.063	3.02 ± 0.7

Sequence	protein stability index (treatment: DMSO)	protein stability index (treatment: MLN4924 1 uM, 8 h)
HQRIPQSVRILGSLVAILLVFLIT [SLC29A1]	2.1 ± 0.37	2.33 ± 0.25
HRVLQRLEQRRQQASEREAPSIEQ [FCHSD1]	5.09 ± 0.25	4.99 ± 0.26
HSLYRRTGASFQKAQQEFAAGVFS [SCAMP3]	2.81 ± 0.14	2.85 ± 0.14
HTKELEDKVIELHKSHRGMTPAEA [EPB41L3]	5.2 ± 0.24	5.13 ± 0.16
HVHDPHGQVIWGMSWAKLARQATN [FBXO39]	2.58 ± 0.32	2.94 ± 0.21
IAGNKCDLIDVREVMERDAKDYAD [RAB22A]	4.98 ± 0.22	5.06 ± 0.11
IARDQTKSIVEKIQAKLPGIAKKK [RTN3]	3.8 ± 0.15	3.75 ± 0.32
ICLMCVHSLERAGSKQYSAAIAFT [SMG5]	2.58 ± 0.33	2.42 ± 0.78
ICYLPHWMMQNLLLEEGGLVQVES [UFD1]	2.65 ± 0.34	2.7 ± 0.5
IDKGDIPDLTQAPSSLMETLEQHL [SNAP91]	4.11 ± 0.22	4.08 ± 0.33
IDPLLYMTEWFMCAFSRTLPWSSV [TBC1D10A]	3.43 ± 0.23	3.16 ± 0.27
IEIATYRKLLEGEESRISVPVHSF [PRPH]	2.47 ± 0.26	2.47 ± 0.21
IEIEDEAEKWQKEKDRIKSFTTNE [TRIM29]	4.94 ± 0.17	4.96 ± 0.16
IELANIRDEVAFHTAKCEKLQKEK [MTUS2]	4.31 ± 0.3	4.46 ± 0.44
IELLTGETWNPFKLQYQLRNVRER [GOLPH3L]	2.29 ± 0.27	2.49 ± 0.21
IFRSYSRGAQGILLVYDITNRWSF [RAB40C]	2.52 ± 0.7	2.61 ± 0.73
IFSVLNSDDAAAPALETQPQGDEE [SMOC2]	5.22 ± 0.23	5.29 ± 0.44
IHKGEKPYQCSQCSKSYSRRSFLI [ZSCAN9]	2.46 ± 0.75	2.12 ± 0.42
IIDSSLEDITYVLKPTFTKQQIAN [USP39]	2.69 ± 0.26	2.8 ± 0.24
IIPQVPLFNILAKFNGITEKEYKT [USP39]	2.41 ± 0.28	2.49 ± 0.28
